40 sequences from the supplement of paper PMC7877785 can be followed below.

A short description of this series: self-splicing fitness, log relative to wild type (ln ratio); higher = more splicing; Tetrahymena group I intron in knt gene, E. coli kanamycin selection, DiMSum; sequences stand for … in CUCUCU…GGAGGGAAAAGUUAUCAGGCAUGCACCUGGUAGCUAGUCUUUAAACCAAUAGAUUGCAUCGGUUUAAAAGGCAAGACCGUCAAAUUGCGGGAAAGGGGUCAACAGCCGUUCAGUACCAAGUCUCAGGGGAAACUUUGAGAUGGCCUUGCAAAGGGUAUGGUAAUAAGCUGACGGACAUGGUCCUAACCACGCAGCCAAGUCCUAAGUCAACAGAUCUUCUGUUGAUAUGGAUGCAGUUCACAGACUAAAUGUCGGUCGGGGAAGAUGUAUUCUUCUCAUAAGAUAUAGUCGGACCUCUCCUUAAUGGGAGCUAGCGGAUGAAGUGAUGCAACACUGGAGCCGCUGGGAACUAAUUUGUAUGCGAAAGUAUAUUGAUUAGUUUUGGAGUACUCGUGGUCG
The method in brief:
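The eight P1ex-region nucleotides of an intron in the knt kanamycin-resistance gene on pET-22b(+) were all randomised and the library put into E. coli BL21(DE3). Six replicate transformations were grown overnight at 37°C or 30°C on LB agar with or without 25 μg/mL kanamycin, together with 100 μg/mL carbenicillin, 50 μM IPTG and 0.2% rhamnose. Colonies were pooled and amplicon-sequenced on an Illumina HiSeq 2500. Fitness from DiMSum is the error-weighted combination of wild-type-normalised replicate fold changes, kanamycin over none.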

± gives the uncertainty stated by the source.

As for UAUCAGCAAUAUUACGGCCA, the “self-splicing fitness (ln)” value (30 °C) came to 0.201 ± 0.12 and the “self-splicing fitness (ln)” value (37 °C) turned out to be 0.167 ± 0.11. The like results for UAUCAGCAAUAUUACGUAAA were, in that order, -0.89 ± 0.068 and 0.233 ± 0.1. The like results for UAUCAGCAAUAUUACGUAAC were, in that order, -1.48 ± 0.14 and -0.246 ± 0.16. The like results for UAUCAGCAAUAUUACGUAAU were, in that order, -1.62 ± 0.073 and -0.784 ± 0.077. Take UAUCAGCAAUAUUACGUACA: the “self-splicing fitness (ln)” value is -0.141 ± 0.058 (30 °C) and -0.199 ± 0.07 (37 °C).

For UAUCAGCAAUAUUACGUCGG, the “self-splicing fitness (ln)” value (30 °C) was -1.02 ± 0.064 and the “self-splicing fitness (ln)” value (37 °C) amounted to 0.0416 ± 0.082. Consider UAUCAGCAAUAUUACGUGAC, for which the “self-splicing fitness (ln)” value (30 °C) was -0.555 ± 0.1 and the “self-splicing fitness (ln)” value (37 °C) was -1.45 ± 0.15. The corresponding values for UAUCAGCAAUAUUACGUGCC are -4.21 ± 0.34 and -1.95 ± 0.16. Take UAUCAGCAAUAUUACGUGGG: the “self-splicing fitness (ln)” value (30 °C) was -1.97 ± 0.1 and the “self-splicing fitness (ln)” value (37 °C) was -1.77 ± 0.13. In the case of UAUCAGCAAUAUUACGUGUU, the “self-splicing fitness (ln)” value runs as follows: (30 °C) -3.36 ± 0.14; (37 °C) -2.83 ± 0.12. For UAUGAGCAAUAUUACGAAGA, the “self-splicing fitness (ln)” value reads like this: (30 °C) -2.69 ± 0.44; (37 °C) -1.81 ± 0.2. As for UAUGAGCAAUAUUACGACCA, the “self-splicing fitness (ln)” value is -2.25 ± 0.16 (30 °C) and -2.07 ± 0.18 (37 °C). The like results for UAUGAGCAAUAUUACGAGGG were, in that order, -3.93 ± 0.42 and -2.66 ± 0.29. On to UAUGAGCAAUAUUACGCAUA, for which the “self-splicing fitness (ln)” value (37 °C) was -2.21 ± 0.42.

Turning to UAUGAGCAAUAUUACGCCAG, the “self-splicing fitness (ln)” value runs as follows: (30 °C) -2.96 ± 0.4; (37 °C) -1.21 ± 0.38.

On to UAUGAGCAAUAUUACGCCCG, for which the “self-splicing fitness (ln)” value (30 °C) was -2.23 ± 0.3 and the “self-splicing fitness (ln)” value (37 °C) was 0.00889 ± 0.21. The corresponding values for UAUGAGCAAUAUUACGCGCA are -1.68 ± 0.12 and -0.965 ± 0.15. Take UAUGAGCAAUAUUACGCUAG: the “self-splicing fitness (ln)” value (30 °C) was -3.34 ± 0.41. For UAUGAGCAAUAUUACGCUGG, the “self-splicing fitness (ln)” value by setting is: (30 °C) -2.71 ± 0.33; (37 °C) -1.79 ± 0.38. Regarding UAUGAGCAAUAUUACGGAUC, the “self-splicing fitness (ln)” value reads like this: (30 °C) -3.84 ± 0.44; (37 °C) -2.19 ± 0.41. As for UAUGAGCAAUAUUACGGCCU, the “self-splicing fitness (ln)” value (30 °C) is -4 ± 0.37. UAUGAGCAAUAUUACGGCGA: the “self-splicing fitness (ln)” value runs as follows: (30 °C) -0.815 ± 0.17; (37 °C) -0.45 ± 0.16.

For the sequence UAUGAGCAAUAUUACGGGAG, the “self-splicing fitness (ln)” value is, setting by setting: (30 °C) -1.86 ± 0.19; (37 °C) -2.95 ± 0.24. The like results for UAUGAGCAAUAUUACGGUGG were, in that order, -1.85 ± 0.22 and -2.72 ± 0.37. The like results for UAUGAGCAAUAUUACGGUUA were, in that order, -1.76 ± 0.15 and 0.43 ± 0.12. Turning to UAUGAGCAAUAUUACGUACA, the “self-splicing fitness (ln)” value was -2.39 ± 0.18 (30 °C) and -1.62 ± 0.23 (37 °C). The like results for UAUGAGCAAUAUUACGUACG were, in that order, -2.35 ± 0.19 and -1.34 ± 0.21. The like results for UAUGAGCAAUAUUACGUAGU were, in that order, -3.67 ± 0.28 and -1.99 ± 0.21. As to UAUGAGCAAUAUUACGUAUG, the “self-splicing fitness (ln)” value (30 °C) is -2.35 ± 0.22 and the “self-splicing fitness (ln)” value (37 °C) is -1.58 ± 0.27.

As for UAUGAGCAAUAUUACGUCAA, the “self-splicing fitness (ln)” value (37 °C) is -2.59 ± 0.38. Regarding UAUGAGCAAUAUUACGUCUC, the “self-splicing fitness (ln)” value (30 °C) was -2.45 ± 0.25. Consider UAUGAGCAAUAUUACGUGGA, for which the “self-splicing fitness (ln)” value runs as follows: (30 °C) -3.52 ± 0.35; (37 °C) -3.47 ± 0.43.

On to UAUUAGCAAUAUUACGAAAG, for which the “self-splicing fitness (ln)” value (30 °C) was -2.42 ± 0.37. With UAUUAGCAAUAUUACGAAUA, the “self-splicing fitness (ln)” value (30 °C) was -0.842 ± 0.38 and the “self-splicing fitness (ln)” value (37 °C) was -0.292 ± 0.38. As for UAUUAGCAAUAUUACGACUU, the “self-splicing fitness (ln)” value was -0.468 ± 0.13 (30 °C) and -0.537 ± 0.14 (37 °C). Consider UAUUAGCAAUAUUACGAGAG, for which the “self-splicing fitness (ln)” value is -3.48 ± 0.26 (30 °C) and -3.11 ± 0.29 (37 °C).

In the case of UAUUAGCAAUAUUACGAUAA, the “self-splicing fitness (ln)” value by setting is: (30 °C) -1.07 ± 0.19; (37 °C) 0.628 ± 0.16.

As to UAUUAGCAAUAUUACGAUAC, the “self-splicing fitness (ln)” value (37 °C) was -1.13 ± 0.24.

With UAUUAGCAAUAUUACGAUUC, the “self-splicing fitness (ln)” value reads like this: (30 °C) -1.88 ± 0.16; (37 °C) -0.062 ± 0.18. For UAUUAGCAAUAUUACGCAUA, the “self-splicing fitness (ln)” value by setting is: (30 °C) -0.754 ± 0.29; (37 °C) -0.355 ± 0.26.
